From patent publication US20080027001A1 (published 2008)
Where a chain is given by its changes, count along the chain named. Names may count otherwise. Each block holds one binder with its values, some of them ahead of it. Bridges are numbered along the chain shown (N, C = ends).

Experiments:
[1] = biological target: T1, mutant NgR1 EM11 (R279A) (human, UniProt Q9BZR6 27-447); assay: MAG-AP (10 µg/ml) on transfected COS-7 cells, AP luminescence, corrected for background and transfection efficiency
T1 construct: whole, on cells
T1 sequence (looked up): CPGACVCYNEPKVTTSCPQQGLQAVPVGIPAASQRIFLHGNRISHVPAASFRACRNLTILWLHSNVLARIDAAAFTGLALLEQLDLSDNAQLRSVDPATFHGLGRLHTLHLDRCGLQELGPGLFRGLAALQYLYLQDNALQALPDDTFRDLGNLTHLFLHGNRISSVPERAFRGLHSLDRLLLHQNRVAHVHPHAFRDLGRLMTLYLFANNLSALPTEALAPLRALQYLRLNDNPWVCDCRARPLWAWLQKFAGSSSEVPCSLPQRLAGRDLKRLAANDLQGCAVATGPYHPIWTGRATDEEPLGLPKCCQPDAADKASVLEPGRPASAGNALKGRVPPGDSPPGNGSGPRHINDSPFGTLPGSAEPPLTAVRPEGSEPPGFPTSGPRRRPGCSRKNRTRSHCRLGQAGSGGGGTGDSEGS
Description: (§1) The remaining cells were separately plated and assayed for surface expression of the NgR1 proteins by immunocytochemistry (Example 1.9) and for total NgR1 protein levels by Western blot analysis (Example 1.8). […] The next day, wells were rinsed once with HBAH (Hank's Balanced Salt Solution (HBSS) containing bovine serum albumin (0.5 mg/ml), NaN₃ (0.1%), and 20 mM HEPES pH 7.0) at room temperature followed by incubation with 100 μl of AP fusion protein (MAG-AP or Nogo-66-AP) diluted to a final concentration of 10 μg/ml in HBAH for 90 minutes. Wells were then washed six times with gentle shaking in HBAH at room temperature, five minutes each wash. Cells were then fixed with acetone-formaldehyde (60%-3%, in 20 mM HEPES, pH 7.0) for 15 seconds at room temperature, then washed three times for five minutes each with HBSS. Binding of AP-tagged ligands was measured using the Great EscAPe SEAP Kit (BD Biosciences) following the manufacturer's recommended protocol. Briefly, after aspirating HBSS, 60 μl of dilution buffer was added to each well, the plates were sealed, and then incubated at 65° C. for 90 min. Plates were cooled on ice and then 60 μl of assay buffer was added per well and incubated at room temperature for five minutes. Sixty microliters of diluted CSPD® substrate (Applied Biosystems, Foster City, Calif.) was then added per well, incubated for 10 minutes at room temperature, and then read on an LMAXII luminometer (Molecular Devices). Absolute binding numbers were corrected by subtracting average binding values obtained from mock-transfected controls. Binding was further corrected for sample-to-sample variations in transfection efficiency by normalizing to beta-galactosidase activity. Beta-galactosidase activity was measured using the luminescent beta-gal detection kit II (BD Biosciences) following the manufacturer's recommended protocol. Three independent binding experiments were conducted with six to eleven replicates per experiment. Background-subtracted, beta-galactosidase-corrected binding values were expressed relative to the wild type receptor.

[2] = biological target: T2, mutant NgR1 EM7 (K277D/R279D) (human, UniProt Q9BZR6 27-447); assay: as above
T2 construct: whole, on cells
T2 sequence (looked up): T1 sequence (looked up) with K251D, A253D
Description: as §1

[3] = biological target: T3, mutant NgR1 EM8 (K277A, R279A) (human, UniProt Q9BZR6 27-447); assay: as above
T3 construct: whole, on cells
T3 sequence (looked up): T1 sequence (looked up) with K251A
Description: as §1

[4] = biological target: Recombinant MAG-Fc chimera (R&D Systems); assay: cell-based or functional assay
[5] = biological target: T1, mutant NgR1 EM11 (R279A); assay: Nogo-66-AP (10 µg/ml) on transfected COS-7 cells, AP luminescence
Description: as §1

[6] = biological target: T4, mutant NgR1 EM10 (K277A) (human, UniProt Q9BZR6 27-447); assay: as above
T4 construct: whole, on cells
T4 sequence (looked up): T1 sequence (looked up) with K251A, A253R
Description: as §1

[7] = biological target: T2, mutant NgR1 EM7 (K277D/R279D); assay: as above
Description: as §1

[8] = biological target: T3, mutant NgR1 EM8 (K277A, R279A); assay: as above
Description: as §1

percent reduction in binding relative to wild type NgR1 [1]: 36%
percent reduction in binding relative to wild type NgR1 [2]: 57%
percent reduction in binding relative to wild type NgR1 [3]: 58%
B1: MAG-AP (N-terminal human myelin associated glycoprotein amino acids 1-516, C-terminal alkaline phosphatase domain amino acids 23-511, six C-terminal histidine … (ligand)
chain: GHWGAWMPSSISAFEGTCVSIPCRFDFPDELRPAVVHGVWYFNSPYPKNYPPVVFKSRTQVVHESFQGRSRLLGDLGLRNCTLLLSNVSPELGGKYYFRGDLGGYNQYTFSEHSVLDIVNTPNIVVPPEVVAGTEVEVSCMVPDNCPELRPELSWLGHEGLGEPAVLGRLREDEGTWVQVSLLHFVPTREANGHRLGCQASFPNTTLQFEGYASMDVKYPPVIVEMNSSVEAIEGSHVSLLCGADSNPPPLLTWMRDGTVLREAVAESLLLELEEVTPAEDGVYACLAENAYGQDNRTVGLSVMYAPWKPTVNGTMVAVEGETVSILCSTQSNPDPILTIFKEKQILSTVIYESELQLELPAVSPEDDGEYWCVAENQYGQRATAFNLSVEFAPVLLLESHCAAARDTVQCLCVVKSNPEPSVAFELPSRNVTVNESEREFVYSERSGLVLTSILTLRGQAQAPPRVICTARNLYGAKSLELPFQGAHRLMWAKIGPIIPVEEENPDFWNREAAEALGAAKKLQPAQTAAKNLIIFLGDGMGVSTVTAARILKGQKKDKLGPEIPLAMDRFPYVALSKTYNVDKHVPDSGATATAYLCGVKGNFQTIGLSAAARFNQCNTTRGNEVISVMNRAKKAGKSVGVVTTTRVQHASPAGTYAHTVNRNWYSDADVPASARQEGCQDIATQLISNMDIDVILGGGRKYMFRMGTPDPEYPDDYSQGGTRLDGKNLVQEWLAKRQGARYVWNRTELMQASLDPSVTHLMGLFEPGDMKYEIHRDSTLDPSLMEMTEAALRLLSRNPRGFFLFVEGGRIDHGHHESRAYRALTETIMFDDAIERAGQLTSEEDTLSLVTADHSHVFSFGGYPLRGSSIFGLAPGKARDRKAYTVLLYGNGPGYVLKDGARPDVTESESGSPEYRQQSAVPLDEETHAGEDVAVFARGPQAHLVHGVQEQTFIAHVMAFAACLEPYTACDLAPPAGTTDAAHPGHHHHHH
notes: range 1-516;range 23-511; also called alkaline phosphatase-labeled MAG; MAG-AP fusion protein

neurite outgrowth, MAG-Fc at 20 µg/ml: reduction of peptide efficacy against NRL2b [4]: ~2 fold
Binder: Ac-CQKARGC-NH2 (disulfide 1-7 (inferred)) [NRL2bA2 (N-Ac-CQKARGC-NH2)]

binding result [5]: binds
binding result [6]: binds
binding result [7]: binds
binding result [8]: binds
B2: Nogo-66-AP(C47V) (ligand)
chain: IIPVEEENPDFWNREAAEALGAAKKLQPAQTAAKNLIIFLGDGMGVSTVTAARILKGQKKDKLGPEIPLAMDRFPYVALSKTYNVDKHVPDSGATATAYLCGVKGNFQTIGLSAAARFNQCNTTRGNEVISVMNRAKKAGKSVGVVTTTRVQHASPAGTYAHTVNRNWYSDADVPASARQEGCQDIATQLISNMDIDVILGGGRKYMFRMGTPDPEYPDDYSQGGTRLDGKNLVQEWLAKRQGARYVWNRTELMQASLDPSVTHLMGLFEPGDMKYEIHRDSTLDPSLMEMTEAALRLLSRNPRGFFLFVEGGRIDHGHHESRAYRALTETIMFDDAIERAGQLTSEEDTLSLVTADHSHVFSFGGYPLRGSSIFGLAPGKARDRKAYTVLLYGNGPGYVLKDGARPDVTESESGSPEYRQQSAVPLDEETHAGEDVAVFARGPQAHLVHGVQEQTFIAHVMAFAACLEPYTACDLAPPAGTTDAAHPGRIYKGVIQAIQKSDEGHPFRAYLESEVAISEELVQKYSNSALGHVNVTIKELRRLFLVDDLVDSLKHHHHHH
notes: Any secretion signal in front of AP is not described; also called alkaline phosphatase-labeled Nogo-66
